Experimental data taken from publication PMC8041869.

Molecular target: SARS-CoV-2 S-protein S1 subunit (SARS-CoV-2)
Experiment: ELISA

“human ACE2 extracellular domain, wildtype, Fc-tagged dimeric form (from UniProt Q9BYF1-1 18-615) (Fc fusion)” showed an EC50 of 10.4 nM.
